Assay results as given in patent US20170342168A1 (Hoffmann-La Roche, published 2017).

Target: T1, human neonatal Fc-receptor (FcRn) (human, UniProt P55899 24-297; P61769 21-119, limits assumed)
T1 construct: also called the receptor
Experiment: FcRn affinity chromatography

T1 sequence (P55899 24-297 limits assumed, chain 1 of 2): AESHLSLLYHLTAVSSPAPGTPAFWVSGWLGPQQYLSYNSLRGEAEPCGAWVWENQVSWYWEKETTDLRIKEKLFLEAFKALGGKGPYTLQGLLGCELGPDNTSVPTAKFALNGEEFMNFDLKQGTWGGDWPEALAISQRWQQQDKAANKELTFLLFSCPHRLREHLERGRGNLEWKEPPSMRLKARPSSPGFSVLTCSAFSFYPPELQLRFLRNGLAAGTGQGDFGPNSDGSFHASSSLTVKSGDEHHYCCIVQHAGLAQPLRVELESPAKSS
T1 sequence (P61769 21-119 limits assumed, chain 2 of 2): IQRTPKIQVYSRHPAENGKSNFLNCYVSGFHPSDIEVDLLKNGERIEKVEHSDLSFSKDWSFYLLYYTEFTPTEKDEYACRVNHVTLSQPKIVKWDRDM

anti-HER2 antibody with symmetric mutation D98E
retention time: 46.2 min

anti-HER2 antibody with symmetric mutation E258H
retention time: 45.6 min

anti-HER2 antibody with symmetric mutation E430H
retention time: 46.4 min

anti-HER2 antibody with symmetric mutation K288E
retention time: 45.2 min

anti-HER2 antibody with symmetric mutation K290H
retention time: 46.2 min

anti-HER2 antibody with symmetric mutation K317H
retention time: 46.3 min

anti-HER2 antibody with symmetric mutation L309H
retention time: 45.5 min

anti-HER2 antibody with symmetric mutation N434H
retention time: 52 min

anti-HER2 antibody with symmetric mutation Q311H
retention time: 46.3 min

anti-HER2 antibody with symmetric mutation R255D
retention time: 41.4 min

anti-HER2 antibody with symmetric mutation T256H
retention time: 46 min

anti-HER2 antibody, wild-type
retention time: 46.3 min

B1: IgG1 Fc-region with L234A/L235A/P329G and H310A/H433A/Y436A (other)
chain: DKTHTCPPCPAPEAAGGPSVFLFPPKPKDTLMISRTPEVTCVVVDVSHEDPEVKFNWYVDGVEVHNAKTKPREEQYNSTYRVVSVLTVLAQDWLNGKEYKCKVSNKALGAPIEKTISKAKGQPREPQVYTLPPSRDELTKNQVSLTCLVKGFYPSDIAVEWESNGQPENNYKTTPPVLDSDGSFFLYSKLTVDKSRWQQGNVFSCSVMHEALANHATQKSLSLSPGK
notes: Symmetric mutations in both Fc chains; also called HHY-AAA
binding result: no binding (tested: retention time below 3 minutes)

B2: IgG1 Fc-region with L234A/L235A/P329G and I253A/H310A (other)
chain: DKTHTCPPCPAPEAAGGPSVFLFPPKPKDTLMASRTPEVTCVVVDVSHEDPEVKFNWYVDGVEVHNAKTKPREEQYNSTYRVVSVLTVLAQDWLNGKEYKCKVSNKALGAPIEKTISKAKGQPREPQVYTLPPSRDELTKNQVSLTCLVKGFYPSDIAVEWESNGQPENNYKTTPPVLDSDGSFFLYSKLTVDKSRWQQGNVFSCSVMHEALHNHYTQKSLSLSPGK
notes: Symmetric mutations in both Fc chains
binding result: no binding (tested: retention time below 3 minutes)

B3: IgG1 Fc-region with L234A/L235A/P329G and I253A/H435A (other)
chain: DKTHTCPPCPAPEAAGGPSVFLFPPKPKDTLMASRTPEVTCVVVDVSHEDPEVKFNWYVDGVEVHNAKTKPREEQYNSTYRVVSVLTVLHQDWLNGKEYKCKVSNKALGAPIEKTISKAKGQPREPQVYTLPPSRDELTKNQVSLTCLVKGFYPSDIAVEWESNGQPENNYKTTPPVLDSDGSFFLYSKLTVDKSRWQQGNVFSCSVMHEALHNAYTQKSLSLSPGK
notes: as for B2
binding result: no binding (tested: retention time below 3 minutes)

B4: IgG1 Fc-region with L234A/L235A/P329G and H310A/Y436A (other)
chain: DKTHTCPPCPAPEAAGGPSVFLFPPKPKDTLMISRTPEVTCVVVDVSHEDPEVKFNWYVDGVEVHNAKTKPREEQYNSTYRVVSVLTVLAQDWLNGKEYKCKVSNKALGAPIEKTISKAKGQPREPQVYTLPPSRDELTKNQVSLTCLVKGFYPSDIAVEWESNGQPENNYKTTPPVLDSDGSFFLYSKLTVDKSRWQQGNVFSCSVMHEALHNHATQKSLSLSPGK
notes: as for B2
binding result: no binding (tested: retention time below 3 minutes)

B5: IgG1 Fc-region with L234A/L235A/P329G and I253A/H310A/H435A (other)
chain: DKTHTCPPCPAPEAAGGPSVFLFPPKPKDTLMASRTPEVTCVVVDVSHEDPEVKFNWYVDGVEVHNAKTKPREEQYNSTYRVVSVLTVLAQDWLNGKEYKCKVSNKALGAPIEKTISKAKGQPREPQVYTLPPSRDELTKNQVSLTCLVKGFYPSDIAVEWESNGQPENNYKTTPPVLDSDGSFFLYSKLTVDKSRWQQGNVFSCSVMHEALHNAYTQKSLSLSPGK
notes: Symmetric mutations in both Fc chains; also called IHH-AAA
binding result: no binding (tested: retention time below 3 minutes)

B6: IgG1 Fc-region with L234A/L235A/P329G and H310A/H435A (other)
chain: DKTHTCPPCPAPEAAGGPSVFLFPPKPKDTLMISRTPEVTCVVVDVSHEDPEVKFNWYVDGVEVHNAKTKPREEQYNSTYRVVSVLTVLAQDWLNGKEYKCKVSNKALGAPIEKTISKAKGQPREPQVYTLPPSRDELTKNQVSLTCLVKGFYPSDIAVEWESNGQPENNYKTTPPVLDSDGSFFLYSKLTVDKSRWQQGNVFSCSVMHEALHNAYTQKSLSLSPGK
notes: as for B2
binding result: no binding (tested: retention time below 3 minutes)
